Results taken from PMC4113144, “IRF-1 regulates alternative mRNA splicing of carcinoembryonic antigen-related cell adhesion molecule 1 (CEACAM1) in breast epithelial cells generating an immunoreceptor tyrosine-based inhibition motif”.

Biological target: T1, IRF-1 (UniProt P10914 1-325)
T1 sequence: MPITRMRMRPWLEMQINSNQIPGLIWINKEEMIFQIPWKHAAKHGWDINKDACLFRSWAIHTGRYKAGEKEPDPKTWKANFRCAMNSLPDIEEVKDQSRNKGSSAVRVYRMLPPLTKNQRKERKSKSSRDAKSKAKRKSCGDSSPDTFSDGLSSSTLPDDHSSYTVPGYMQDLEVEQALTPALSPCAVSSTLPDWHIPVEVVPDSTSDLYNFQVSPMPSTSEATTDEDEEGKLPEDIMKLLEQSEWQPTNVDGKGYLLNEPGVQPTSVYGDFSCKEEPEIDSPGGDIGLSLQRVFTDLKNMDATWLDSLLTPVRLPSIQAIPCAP
Assay: EMSA; 17 pmol IRF-1 : 0.3 pmol DNA lowest ratio; mostly C1 plus C2 complexes; LightShift 1X binding buffer, 5% glycerol, 10 mM MgCl2, 200 ng poly(dI-dC), 0.3 pmol labeled DNA in 10 ul, room temperature 30 min; 6% DNA retardation gel; pH and salt not given
Conditions: protein: commercial; tags: His; label: IRDye 700

B1: CEACAM1 ISRE WT 60-mer (dsDNA)
DNA 1: TGGGAAACCAAAATGTAGACAGAAAGGAAAGAGAAAGTAAGGACAAAGGTAGGAATGAGA
DNA 2: TCTCATTCCTACCTTTGTCCTTACTTTCTCTTTCCTTTCTGTCTACATTTTGGTTTCCCA
binding result: binds
